Assay results from patent US20130171059A1 (AbbVie / Abbott, published 2013).

Columns and labels:
[1] = target: T1, Recombinant Human TNF-α/TNFSF1A (human, UniProt P01375 77-233); assay: SPR (Biacore)
T1 construct: Bought reagent for Biacore; also called huTNFα; HuTNFα
Procedure: (§1) The BIACORE assay (Biacore, Inc, Piscataway, N.J.) determined the affinity of antibodies or DVD-Ig proteins with kinetic measurements of on-rate and off-rate constants. Binding of antibodies or DVD-Ig proteins to a target antigen (for example, a purified recombinant target antigen) was determined by surface plasmon resonance-based measurements with a Biacore® 1000 or 3000 instrument (Biacore® AB, Uppsala, Sweden) using running HBS-EP (10 mM HEPES [pH 7.4], 150 mM NaCl, 3 mM EDTA, and 0.005% surfactant P20) at 25° C. All chemicals were obtained from Biacore® AB (Uppsala, Sweden) or otherwise from a different source as described in the text. For example, approximately 5000 RU of goat anti-mouse IgG, (Fcγ), fragment specific polyclonal antibody (Pierce Biotechnology Inc, Rockford, Ill.) diluted in 10 mM sodium acetate (pH 4.5) was directly immobilized across a CM5 research grade biosensor chip using a standard amine coupling kit according to manufacturer's instructions and procedures at 25 μg/ml. Unreacted moieties on the biosensor surface were blocked with ethanolamine. Modified carboxymethyl dextran surface in flowcell 2 and 4 was used as a reaction surface. Unmodified carboxymethyl dextran without goat anti-mouse IgG in flow cell 1 and 3 was used as the reference surface. For kinetic analysis, rate equations derived from the 1:1 Langmuir binding model were fitted simultaneously to association and dissociation phases of all eight injections (using global fit analysis) with the use of Biaevaluation 4.0.1 software. Purified antibodies or DVD-Ig proteins were diluted in HEPES-buffered saline for capture across goat anti-mouse IgG specific reaction surfaces. Antibodies or DVD-Ig proteins to be captured as a ligand (25 μg/ml) were injected over reaction matrices at a flow rate of 5 μl/minute. The association and dissociation rate constants, kₒₙ (M⁻¹s⁻¹) and koff (s⁻¹) were determined under a continuous flow rate of 25 μl/minute. Rate constants were derived by making kinetic binding measurements at different antigen concentrations ranging from 10-200 nM. The equilibrium dissociation constant (M) of the reaction between antibodies or DVD-Ig proteins and the target antigen was then calculated from the kinetic rate constants by the following formula: KD=koff/kₒₙ. Binding was recorded as a function of time and kinetic rate constants were calculated.

[2] = target: T2, Recombinant Human β-NGF (human, UniProt P01138 122-239, limits assumed); assay: SPR (Biacore)
T2 construct: Bought reagent for Biacore; also called huNGF; NGF (Rinat)
T2 sequence (P01138 122-239 limits assumed): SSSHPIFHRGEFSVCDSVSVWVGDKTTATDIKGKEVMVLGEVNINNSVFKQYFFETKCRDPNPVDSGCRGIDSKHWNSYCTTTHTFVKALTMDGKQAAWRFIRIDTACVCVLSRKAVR
Procedure: as §1

[3] = target: T1, Recombinant Human TNF-α/TNFSF1A; assay: cell-based or functional assay
[4] = target: T2, Recombinant Human β-NGF; assay: cell-based or functional assay
[5] = target: T3, Recombinant Human SOST (human, UniProt Q9BQB4 24-213); assay: SPR (Biacore)
T3 construct: Biacore used the R&D reagent; also called Human Sclerostin
T3 sequence (looked up): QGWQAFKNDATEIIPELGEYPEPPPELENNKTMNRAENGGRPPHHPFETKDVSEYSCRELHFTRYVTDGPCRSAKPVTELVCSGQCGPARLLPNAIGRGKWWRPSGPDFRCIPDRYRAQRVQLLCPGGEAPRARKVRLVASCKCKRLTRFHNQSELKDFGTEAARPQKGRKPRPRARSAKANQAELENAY
Procedure: as §1

[6] = target: T3, Recombinant Human SOST; assay: cell-based or functional assay
[7] = target: T2, Recombinant Human β-NGF; assay: SPR (Biacore); antibody captured on anti-IgG Fc chip, antigen 10-200 nM in flow, 25 C, HBS-EP pH 7.4; koff 6.80E-06 is near the assay floor of 10^-6 s^-1
Procedure: The BIACORE assay (Biacore, Inc, Piscataway, N.J.) determined the affinity of antibodies or DVD-Ig proteins with kinetic measurements of on-rate and off-rate constants. Binding of antibodies or DVD-Ig proteins to a target antigen (for example, a purified recombinant target antigen) was determined by surface plasmon resonance-based measurements with a Biacore® 1000 or 3000 instrument (Biacore® AB, Uppsala, Sweden) using running HBS-EP (10 mM HEPES [pH 7.4], 150 mM NaCl, 3 mM EDTA, and 0.005% surfactant P20) at 25° C. All chemicals were obtained from Biacore® AB (Uppsala, Sweden) or otherwise from a different source as described in the text. […] The association and dissociation rate constants, kₒₙ (M⁻¹s⁻¹) and koff (s⁻¹) were determined under a continuous flow rate of 25 μl/minute. […] The equilibrium dissociation constant (M) of the reaction between antibodies or DVD-Ig proteins and the target antigen was then calculated from the kinetic rate constants by the following formula: KD=koff/kₒₙ. Binding was recorded as a function of time and kinetic rate constants were calculated.

T1 sequence (P01375 77-233 limits assumed): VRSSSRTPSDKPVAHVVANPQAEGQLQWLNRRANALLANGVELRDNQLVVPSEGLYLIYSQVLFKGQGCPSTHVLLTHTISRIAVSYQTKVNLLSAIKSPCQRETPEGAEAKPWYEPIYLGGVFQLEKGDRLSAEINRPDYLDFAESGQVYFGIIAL

Row | Binder | Kd [1] | koff [1] | kon [1] | Kd [2] | koff [2] | kon [2] | N-Terminal VD TNFa Neutralization Assay IC50 (L929 cells) [3] | C-Terminal VD NGF Neutralization Assay IC50 (TF-1 cell proliferation) [4] | Kd [5] | koff [5] | kon [5] | C-Terminal VD SOST Neutralization Assay IC50 (Wnt-1/luciferase HEK clone #14) [6] | Kd [7] | NGF Neutralization Assay IC50 (TF-1 cell proliferation) [4] | C-Terminal VD TNFα Neutralization Assay IC50 (L929 cells) [3] | N-Terminal VD NGF Neutralization Assay IC50 (TF-1 cell proliferation) [4] | N-Terminal VD SOST Neutralization Assay IC50 (Wnt-1/luciferase HEK clone #14) [6]
1 | DVD1984 (bispecific antibody, VH/VL crossover DVD-Ig; also called DVD1984H + DVD1984L; copies: 2 + 2) DVD-H: DIQMTQSPSSLSASVGDRVTITCRASQGIRIDLGWYQQKPGKAPKRLIYAASTLQSGVPSRFSGSGSGTEFIFTISSLQPEDFASYYCLQHKSYPLTFGGGTKVEIKRTVAAPQVQLQESGPGLVKPSETLSLTCTVSGFSLIGYDLNWIRQPPGKGLEWIGIIWGDGTTDYNSAVKSRVTISKDTSKNQFSLKLSSVTAADTAVYYCARGGYWYATSYYFDYWGQGTLVTVSS DVD-L: QVQLVESGGGVVQPGRSLRLSCAASGFTFSSYDMHWVRQAPGKGLEWVAVIWSDGSIKYYADSVKGRFTISRDNSKNTLYLQMNSLRAEDTAVYYCAREVESAMGGFYYNGMDVWGQGTTVTVSSASTKGPDIQMTQSPSSLSASVGDRVTITCRASQSISNNLNWYQQKPGKAPKLLIYYTSRFHSGVPSRFSGSGSGTDFTFTISSLQPEDIATYYCQQEHTLPYTFGQGTKLEIK | 0.015 nM | 3.7e-05 s⁻¹ | 2.5e+06 M⁻¹ s⁻¹ | 0.096 nM | 4.3e-05 s⁻¹ | 450000 M⁻¹ s⁻¹ | 0.017 nM | 0.593 nM | – | – | – | – | – | – | – | – | –
2 | DVD1990 (bispecific antibody, VH/VL crossover DVD-Ig; also called DVD1990H + DVD1990L; copies: 2 + 2) DVD-H: EIVMTQSPATLSVSPGERATLSCRASQSVSSNLAWYQQKPGQAPRLLIHGASIRATGLPARFSGSGSGTEFTLTISSLQSEDFAVYYCQQYNYWWTFGQGTKVEIKRTVAAPEVQLQQSGPELVTPGASVKISCKASGYTFTDHYMSWVKQSHGKSLEWIGDINPYSGETTYNQKFKGTATLTVDKSSSIAYMEIRGLTSEDSAVYYCARDDYDASPFAYWGQGTLVTVSA DVD-L: EVQLVESGGGLIQPGGSLRLSCAASGFTVSRNYMSWVRQAPGKGLEWVSVIYSGDRTYYADSVKGRFTISRDNSKNTLYLQMNSLRAEDTAVYYCARGEGGFDYWGQGTLVTVSSASTKGPDVQMIQSPSSLSASLGDIVTMTCQASQGTSINLNWFQQKPGKAPKLLIYGSSNLEDGVPSRFSGSRYGTDFTLTISSLEDEDLATYFCLQHSYLPYTFGGGTKLEIK | 0.016 nM | 4.5e-05 s⁻¹ | 2.8e+06 M⁻¹ s⁻¹ | – | – | – | 0.408 nM | – | 0.33 nM | 0.00058 s⁻¹ | 1.8e+06 M⁻¹ s⁻¹ | > 250 nM | – | – | – | – | –
3 | DVD1960 (bispecific antibody, not shown: a dimerising Fc or GST) heavy: DIVMTQSHKFMSTTVGDRVSITCKASQAVSSAVAWYQQKPGQSPKLLIYWASTRHTGVPDRFTGSGSVTDFTLTIHNLQAEDLALYYCQQHYSTPFTFGSGTKLEIKRTVAAPQVQLQESGPGLVKPSETLSLTCTVSGFSLIGYDLNWIRQPPGKGLEWIGIIWGDGTTDYNSAVKSRVTISKDTSKNQFSLKLSSVTAADTAVYYCARGGYWYATSYYFDYWGQGTLVTVSS light: QVQLKESGPGLVAPSQSLSITCTVSGFSLTDYGVNWVRQPPGKGLEWLGMIWGDGSTDYDSTLKSRLSISKDNSKSQIFLKMNSLQTDDTARYYCAREWHHGPVAYWGQGTLVTVSAASTKGPDIQMTQSPSSLSASVGDRVTITCRASQSISNNLNWYQQKPGKAPKLLIYYTSRFHSGVPSRFSGSGSGTDFTFTISSLQPEDIATYYCQQEHTLPYTFGQGTKLEIKR | – | – | – | – | – | – | 0.086 nM | 3.12 nM | – | – | – | – | – | – | – | – | –
4 | AB020 (antibody, V domains shown, Parent antibody; also called NGF parent antibody) VH: QVQLQESGPGLVKPSETLSLTCTVSGFSLIGYDLNWIRQPPGKGLEWIGIIWGDGTTDYNSAVKSRVTISKDTSKNQFSLKLSSVTAADTAVYYCARGGYWYATSYYFDYWGQGTLVTVSS VL: DIQMTQSPSSLSASVGDRVTITCRASQSISNNLNWYQQKPGKAPKLLIYYTSRFHSGVPSRFSGSGSGTDFTFTISSLQPEDIATYYCQQEHTLPYTFGQGTKLEIKR | – | – | – | – | 6.8e-06 s⁻¹ | 2.5e+06 M⁻¹ s⁻¹ | – | – | – | – | – | – | 2.7 pM | 8 pM | – | – | –
5 | DVD1961 (bispecific antibody, VH/VL crossover DVD-Ig; also called DVD1961H + DVD1961L) heavy: DIQMTQSPSSLSASVGDRVTITCRASQSISNNLNWYQQKPGKAPKLLIYYTSRFHSGVPSRFSGSGSGTDFTFTISSLQPEDIATYYCQQEHTLPYTFGQGTKLEIKRTVAAPQVQLKESGPGLVAPSQSLSITCTVSGFSLTDYGVNWVRQPPGKGLEWLGMIWGDGSTDYDSTLKSRLSISKDNSKSQIFLKMNSLQTDDTARYYCAREWHHGPVAYWGQGTLVTVSA light: QVQLQESGPGLVKPSETLSLTCTVSGFSLIGYDLNWIRQPPGKGLEWIGIIWGDGTTDYNSAVKSRVTISKDTSKNQFSLKLSSVTAADTAVYYCARGGYWYATSYYFDYWGQGTLVTVSSASTKGPDIVMTQSHKFMSTTVGDRVSITCKASQAVSSAVAWYQQKPGQSPKLLIYWASTRHTGVPDRFTGSGSVTDFTLTIHNLQAEDLALYYCQQHYSTPFTFGSGTKLEIK | 0.58 nM | 9.9e-05 s⁻¹ | 170000 M⁻¹ s⁻¹ | < 0.00031 nM | < 1e-06 s⁻¹ | 3.2e+06 M⁻¹ s⁻¹ | – | – | – | – | – | – | – | – | 4.02 nM | 0.132 nM | –
6 | DVD1991 (bispecific antibody, VH/VL crossover DVD-Ig; also called DVD1991H + DVD1991L; copies: 2 + 2) DVD-H: DVQMIQSPSSLSASLGDIVTMTCQASQGTSINLNWFQQKPGKAPKLLIYGSSNLEDGVPSRFSGSRYGTDFTLTISSLEDEDLATYFCLQHSYLPYTFGGGTKLEIKRTVAAPEVQLVESGGGLIQPGGSLRLSCAASGFTVSRNYMSWVRQAPGKGLEWVSVIYSGDRTYYADSVKGRFTISRDNSKNTLYLQMNSLRAEDTAVYYCARGEGGFDYWGQGTLVTVSS DVD-L: EVQLQQSGPELVTPGASVKISCKASGYTFTDHYMSWVKQSHGKSLEWIGDINPYSGETTYNQKFKGTATLTVDKSSSIAYMEIRGLTSEDSAVYYCARDDYDASPFAYWGQGTLVTVSAASTKGPEIVMTQSPATLSVSPGERATLSCRASQSVSSNLAWYQQKPGQAPRLLIHGASIRATGLPARFSGSGSGTEFTLTISSLQSEDFAVYYCQQYNYWWTFGQGTKVEIK | 0.66 nM | 7.1e-05 s⁻¹ | 110000 M⁻¹ s⁻¹ | – | – | – | – | – | 0.017 nM | 0.00025 s⁻¹ | 1.5e+07 M⁻¹ s⁻¹ | – | – | – | 0.401 nM | – | 36 nM
